The source of these data is article PMC12012885, “Cell-Free Reaction System for ATP Regeneration from D-Fructose” (ACS Synthetic Biology, 2025).

One data set deals with T1, Ps.LrhI (Stutzerimonas stutzeri, UniProt Q75WH8).
T1 construct: gene L-RhI; N-terminal hexa-His tag, synthetic gene in pET-28a, E. coli Rosetta(DE3) pLysS
T1 sequence (Q75WH8 1-430): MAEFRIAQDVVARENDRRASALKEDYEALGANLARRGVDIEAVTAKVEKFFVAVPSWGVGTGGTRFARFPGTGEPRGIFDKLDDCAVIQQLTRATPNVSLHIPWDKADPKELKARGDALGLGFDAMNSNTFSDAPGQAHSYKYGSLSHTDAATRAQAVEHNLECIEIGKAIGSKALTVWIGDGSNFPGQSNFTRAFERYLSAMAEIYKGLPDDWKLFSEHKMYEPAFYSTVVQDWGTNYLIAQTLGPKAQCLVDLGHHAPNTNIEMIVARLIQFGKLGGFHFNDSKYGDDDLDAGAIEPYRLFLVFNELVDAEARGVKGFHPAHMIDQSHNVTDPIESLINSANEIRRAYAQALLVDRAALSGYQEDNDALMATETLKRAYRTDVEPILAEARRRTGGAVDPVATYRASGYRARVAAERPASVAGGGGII
Put plainly: coupled assay with D-erythrulose reductase, NADH at […] nm. The data set is classed as biochemical. The conditions noted are these: 10 mM D-erythrose, 4 mM MgCl2, pH 7.0, 37 °C.

The target in the next data set is Asp52 (UniProt position 70, TDGSTDYGILQ). The settings on record: cited from earlier work.
Substrate in the data set “purified protein”: O=C(CO)[C@H](O)CO
Briefly: purified protein. The conditions noted are these: pH 6.5, 37 °C, 50 mM inorganic phosphate, 0.8 mM TPP, 3.8 mM MgCl2. The data set is classed as biochemical, Bifidobacterium adolescentis.

Consider `OC1OC[C@@H](O)[C@H]1O` (stereo partly drawn) [D-erythrose], for which the “coupled assay with D-erythrulose reductase, NADH at 340 nm” value at Ps.LrhI was “We characterized the D-erythrose activity of the enzyme and its stability under synthesis-like conditions”.

The pKa is the pH at which an ionisable group is half protonated. Turning to “Hen egg white lysozyme (lysozyme C) (Gallus gallus)”, the pKa in the data set with Asp52 was 3.33.

B1: Bad.F6Pkt (Bifidobacterium adolescentis ATCC 15703) (protein)
chain: MTSPVIGTPWKKLNAPVSEEAIEGVDKYWRAANYLSIGQIYLRSNPLMKEPFTREDVKHRLVGHWGTTPGLNFLIGHINRLIADHQQNTVIIMGPGHGGPAGTAQSYLDGTYTEYFPNITKDEAGLQKFFRQFSYPGGIPSHYAPETPGSIHEGGELGYALSHAYGAVMNNPSLFVPAIVGDGEAETGPLATGWQSNKLINPRTDGIVLPILHLNGYKIANPTILSRISDEELHEFFHGMGYEPYEFVAGFDNEDHLSIHRRFAELFETVFDEICDIKAAAQTDDMTRPFYPMIIFRTPKGWTCPKFIDGKKTEGSWRSHQVPLASARDTEAHFEVLKNWLESYKPEELFDENGAVKPEVTAFMPTGELRIGENPNANGGRIREELKLPKLEDYEVKEVAEYGHGWGQLEATRRLGVYTRDIIKNNPDSFRIFGPDETASNRLQAAYDVTNKQWDAGYLSAQVDEHMAVTGQVTEQLSEHQMEGFLEGYLLTGRHGIWSSYESFVHVIDSMLNQHAKWLEATVREIPWRKPISSMNLLVSSHVWRQDHNGFSHQDPGVTSVLLNKCFNNDHVIGIYFPVDSNMLLAVAEKCYKSTNKINAIIAGKQPAATWLTLDEARAELEKGAAEWKWASNVKSNDEAQIVLAATGDVPTQEIMAAADKLDAMGIKFKVVNVVDLVKLQSAKENNEALSDEEFAELFTEDKPVLFAYHSYARDVRGLIYDRPNHDNFNVHGYEEQGSTTTPYDMVRVNNIDRYELQAEALRMIDADKYADKINELEAFRQEAFQFAVDNGYDHPDYTDWVYSGVNTNKQGAISATAATAGDNE
notes: homodimer
Usually Km stands for the concentration of substrate that gives half-maximal velocity. On to B1, for which the Km in the data set “purified protein” is 36.2 ± 3.2 mM.

B2: Bad.F6Pkt (Bifidobacterium adolescentis ATCC 15703; H548N) (protein)
chain: MTSPVIGTPWKKLNAPVSEEAIEGVDKYWRAANYLSIGQIYLRSNPLMKEPFTREDVKHRLVGHWGTTPGLNFLIGHINRLIADHQQNTVIIMGPGHGGPAGTAQSYLDGTYTEYFPNITKDEAGLQKFFRQFSYPGGIPSHYAPETPGSIHEGGELGYALSHAYGAVMNNPSLFVPAIVGDGEAETGPLATGWQSNKLINPRTDGIVLPILHLNGYKIANPTILSRISDEELHEFFHGMGYEPYEFVAGFDNEDHLSIHRRFAELFETVFDEICDIKAAAQTDDMTRPFYPMIIFRTPKGWTCPKFIDGKKTEGSWRSHQVPLASARDTEAHFEVLKNWLESYKPEELFDENGAVKPEVTAFMPTGELRIGENPNANGGRIREELKLPKLEDYEVKEVAEYGHGWGQLEATRRLGVYTRDIIKNNPDSFRIFGPDETASNRLQAAYDVTNKQWDAGYLSAQVDEHMAVTGQVTEQLSEHQMEGFLEGYLLTGRHGIWSSYESFVHVIDSMLNQHAKWLEATVREIPWRKPISSMNLLVSSHVWRQDNNGFSHQDPGVTSVLLNKCFNNDHVIGIYFPVDSNMLLAVAEKCYKSTNKINAIIAGKQPAATWLTLDEARAELEKGAAEWKWASNVKSNDEAQIVLAATGDVPTQEIMAAADKLDAMGIKFKVVNVVDLVKLQSAKENNEALSDEEFAELFTEDKPVLFAYHSYARDVRGLIYDRPNHDNFNVHGYEEQGSTTTPYDMVRVNNIDRYELQAEALRMIDADKYADKINELEAFRQEAFQFAVDNGYDHPDYTDWVYSGVNTNKQGAISATAATAGDNE
notes: homodimer
With B2, the Michaelis constant (Km) in the data set “purified protein” is given as 48.7 ± 0.4 mM.
